Target: FLT3 CAR (Short Form; NC7 based FLT3 CAR), SEQ ID NO: 1/29
Assay: flow cytometry of FLT3 CAR transduced T cells stained with biotinylated protein L and streptavidin PE

Sequence of FLT3 CAR (Short Form; NC7 based FLT3 CAR), SEQ ID NO: 1/29 (chain, as listed by the source): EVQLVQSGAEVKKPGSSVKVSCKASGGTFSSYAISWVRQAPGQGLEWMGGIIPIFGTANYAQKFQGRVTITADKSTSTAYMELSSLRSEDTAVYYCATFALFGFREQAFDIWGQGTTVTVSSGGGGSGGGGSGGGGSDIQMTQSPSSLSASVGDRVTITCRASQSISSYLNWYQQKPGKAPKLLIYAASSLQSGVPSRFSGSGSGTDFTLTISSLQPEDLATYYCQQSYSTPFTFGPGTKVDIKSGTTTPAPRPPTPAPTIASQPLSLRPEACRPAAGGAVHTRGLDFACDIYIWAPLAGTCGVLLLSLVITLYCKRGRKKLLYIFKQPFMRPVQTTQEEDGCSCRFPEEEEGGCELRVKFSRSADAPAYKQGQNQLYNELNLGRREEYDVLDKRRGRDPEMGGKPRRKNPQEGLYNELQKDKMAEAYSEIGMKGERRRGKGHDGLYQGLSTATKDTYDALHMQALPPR

biotinylated protein L (Genscript)
% positive cells: 77.1%

— patent US20220259317A1
